Here are results for 125 sequences from the supplement of paper PMC9112550, “Optimization of the antimicrobial peptide Bac7 by deep mutational scanning” (BMC Biology, 2022).

The series has as its system Escherichia coli TOP10. In words: shrunken log2 fold change of peptide-encoding DNA abundance (4.5 h post-induction vs induction); higher = less antimicrobial activity (less host growth inhibition). Particulars: time post-induction: 4.5 h; library: site-saturation at positions 5, 18, 19, 20.
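Further: peptides expressed intracellularly from a pBAD plasmid library in pooled LB shake-flask culture, induced with 0.3% L-arabinose, DNA abundance read by NGS, three biological replicates, DESeq2 with apeglm shrinkage.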

As to RRIRYRPPRLPRPRPRPNWHPRP, the “shrunken log2 fold change” value is -0.575.

Regarding RRIRRRPPRLPRPRPRPWHSPRP, the “shrunken log2 fold change” value was -0.254.

On to RRIRERPPRLPRPRPRPCGSPRP, for which the “shrunken log2 fold change” value amounted to 0.0206.

For the sequence RRIRDRPPRLPRPRPRPCYCPRP, the “shrunken log2 fold change” value was -0.148.

For RRIRVRPPRLPRPRPRPHSNPRP, the “shrunken log2 fold change” value is -0.505.

RRIRFRPPRLPRPRPRPVGCPRP: the “shrunken log2 fold change” value is -0.0325.

Regarding RRIRNRPPRLPRPRPRPKYCPRP, the “shrunken log2 fold change” value was -0.225.

For RRIRERPPRLPRPRPRPMVSPRP, the “shrunken log2 fold change” value is -0.0769.

With RRIRGRPPRLPRPRPRPTPWPRP, the “shrunken log2 fold change” value was determined as 0.848.

On to RRIRERPPRLPRPRPRPIGWPRP, for which the “shrunken log2 fold change” value came to 0.0874.

RRIRYRPPRLPRPRPRPKYEPRP: the “shrunken log2 fold change” value was -0.177.

Take RRIRFRPPRLPRPRPRPWIGPRP: the “shrunken log2 fold change” value is -0.398.

For RRIRIRPPRLPRPRPRPHSLPRP, the “shrunken log2 fold change” value was determined as 0.0644.

Take RRIRSRPPRLPRPRPRPSWNPRP: the “shrunken log2 fold change” value was -0.342.

As to RRIRLRPPRLPRPRPRPEWGPRP, the “shrunken log2 fold change” value worked out at 0.504.

Turning to RRIRCRPPRLPRPRPRPGQFPRP, the “shrunken log2 fold change” value is -0.564.

In the case of RRIRMRPPRLPRPRPRPEIKPRP, the “shrunken log2 fold change” value came out at 3.3.

As for RRIRLRPPRLPRPRPRPCSAPRP, the “shrunken log2 fold change” value was -0.372.

For RRIRFRPPRLPRPRPRPQCTPRP, the “shrunken log2 fold change” value was -0.137.

RRIRTRPPRLPRPRPRPITGPRP: the “shrunken log2 fold change” value was 0.00283.

For the sequence RRIRCRPPRLPRPRPRPKTQPRP, the “shrunken log2 fold change” value was determined as 0.0268.

With RRIRHRPPRLPRPRPRPNIWPRP, the “shrunken log2 fold change” value stood at 0.0229.

As to RRIRSRPPRLPRPRPRPGKLPRP, the “shrunken log2 fold change” value was -0.0662.

On to RRIRMRPPRLPRPRPRPNRMPRP, for which the “shrunken log2 fold change” value was -0.189.

In the case of RRIRCRPPRLPRPRPRPNDGPRP, the “shrunken log2 fold change” value is -0.00783.

As for RRIRYRPPRLPRPRPRPQYNPRP, the “shrunken log2 fold change” value is -1.49.

For RRIRTRPPRLPRPRPRPDAFPRP, the “shrunken log2 fold change” value is -0.014.

For RRIRGRPPRLPRPRPRPPYMPRP, the “shrunken log2 fold change” value is -0.0678.

RRIRWRPPRLPRPRPRPTAPPRP: the “shrunken log2 fold change” value is 0.481.

In the case of RRIRSRPPRLPRPRPRPITEPRP, the “shrunken log2 fold change” value turned out to be 0.0453.

Regarding RRIRCRPPRLPRPRPRPCGHPRP, the “shrunken log2 fold change” value is -0.101.

Regarding RRIRKRPPRLPRPRPRPSPFPRP, the “shrunken log2 fold change” value was 0.0443.

As for RRIRARPPRLPRPRPRPRKYPRP, the “shrunken log2 fold change” value is 0.0773.

Take RRIRHRPPRLPRPRPRPCFFPRP: the “shrunken log2 fold change” value was -0.193.

In the case of RRIRCRPPRLPRPRPRPCNYPRP, the “shrunken log2 fold change” value was -1.4.

With RRIRPRPPRLPRPRPRPTMMPRP, the “shrunken log2 fold change” value is -0.216.

Regarding RRIRGRPPRLPRPRPRPDEWPRP, the “shrunken log2 fold change” value worked out at 0.757.

RRIRGRPPRLPRPRPRPEHWPRP: the “shrunken log2 fold change” value turned out to be 0.378.

In the case of RRIRLRPPRLPRPRPRPICIPRP, the “shrunken log2 fold change” value was -0.579.

With RRIRWRPPRLPRPRPRPTYLPRP, the “shrunken log2 fold change” value amounted to 0.0592.

As for RRIRPRPPRLPRPRPRPDVMPRP, the “shrunken log2 fold change” value was determined as 0.16.

Turning to RRIRRRPPRLPRPRPRPDWMPRP, the “shrunken log2 fold change” value is 0.0919.

RRIRKRPPRLPRPRPRPMMKPRP: the “shrunken log2 fold change” value was determined as 1.05.

For RRIRERPPRLPRPRPRPWYPPRP, the “shrunken log2 fold change” value is -0.224.

With RRIRDRPPRLPRPRPRPMVNPRP, the “shrunken log2 fold change” value is -0.0813.

Regarding RRIRFRPPRLPRPRPRPGCKPRP, the “shrunken log2 fold change” value is -0.222.

Regarding RRIRIRPPRLPRPRPRPSTCPRP, the “shrunken log2 fold change” value is -0.548.

Take RRIRERPPRLPRPRPRPQQKPRP: the “shrunken log2 fold change” value is -0.157.

Take RRIRCRPPRLPRPRPRPMQVPRP: the “shrunken log2 fold change” value is -0.0376.

For the sequence RRIRMRPPRLPRPRPRPIDQPRP, the “shrunken log2 fold change” value came to 0.0164.

Take RRIRNRPPRLPRPRPRPIRPPRP: the “shrunken log2 fold change” value is -0.00213.

For RRIRARPPRLPRPRPRPQWEPRP, the “shrunken log2 fold change” value was 0.196.

Regarding RRIRVRPPRLPRPRPRPRCQPRP, the “shrunken log2 fold change” value was found to be 0.0744.

Regarding RRIRTRPPRLPRPRPRPFWFPRP, the “shrunken log2 fold change” value is 0.526.

With RRIRRRPPRLPRPRPRPWVTPRP, the “shrunken log2 fold change” value was -0.0822.

RRIRRRPPRLPRPRPRPSYKPRP: the “shrunken log2 fold change” value is -0.563.

For the sequence RRIRCRPPRLPRPRPRPERRPRP, the “shrunken log2 fold change” value is 0.0271.

Regarding RRIRTRPPRLPRPRPRPNSPPRP, the “shrunken log2 fold change” value was -0.221.

As to RRIRTRPPRLPRPRPRPRMMPRP, the “shrunken log2 fold change” value worked out at 1.32.

Take RRIRPRPPRLPRPRPRPNRNPRP: the “shrunken log2 fold change” value is -0.352.

Turning to RRIRPRPPRLPRPRPRPMKWPRP, the “shrunken log2 fold change” value was 0.291.

Turning to RRIRIRPPRLPRPRPRPNVAPRP, the “shrunken log2 fold change” value turned out to be 0.00755.

For RRIRKRPPRLPRPRPRPDYRPRP, the “shrunken log2 fold change” value is -0.157.

For RRIRTRPPRLPRPRPRPIDDPRP, the “shrunken log2 fold change” value was -0.498.

As to RRIRFRPPRLPRPRPRPTPKPRP, the “shrunken log2 fold change” value turned out to be 0.681.

Turning to RRIRMRPPRLPRPRPRPAPSPRP, the “shrunken log2 fold change” value was 1.28.

Consider RRIRKRPPRLPRPRPRPEQHPRP, for which the “shrunken log2 fold change” value was 0.586.

For RRIRNRPPRLPRPRPRPMLVPRP, the “shrunken log2 fold change” value was -0.0299.

RRIRQRPPRLPRPRPRPVTGPRP: the “shrunken log2 fold change” value was found to be 0.0279.

RRIRKRPPRLPRPRPRPRFRPRP: the “shrunken log2 fold change” value was determined as 0.276.

As to RRIRGRPPRLPRPRPRPEGSPRP, the “shrunken log2 fold change” value was found to be 1.28.

Turning to RRIRARPPRLPRPRPRPQYTPRP, the “shrunken log2 fold change” value is -0.496.

RRIRSRPPRLPRPRPRPWHTPRP: the “shrunken log2 fold change” value is -0.348.

With RRIRHRPPRLPRPRPRPEQVPRP, the “shrunken log2 fold change” value was -0.0321.

Consider RRIRHRPPRLPRPRPRPYLRPRP, for which the “shrunken log2 fold change” value was -0.173.

For RRIRYRPPRLPRPRPRPMGSPRP, the “shrunken log2 fold change” value is -0.106.

With RRIRNRPPRLPRPRPRPQRDPRP, the “shrunken log2 fold change” value was determined as 0.0103.

As for RRIRFRPPRLPRPRPRPPKEPRP, the “shrunken log2 fold change” value was 0.0652.

On to RRIRWRPPRLPRPRPRPGFKPRP, for which the “shrunken log2 fold change” value is -0.143.

On to RRIRRRPPRLPRPRPRPWKNPRP, for which the “shrunken log2 fold change” value stood at 0.206.

For RRIRARPPRLPRPRPRPQFKPRP, the “shrunken log2 fold change” value was -0.0331.

On to RRIRYRPPRLPRPRPRPQYQPRP, for which the “shrunken log2 fold change” value was -0.103.

For RRIRGRPPRLPRPRPRPEADPRP, the “shrunken log2 fold change” value was 1.

Consider RRIRERPPRLPRPRPRPCKLPRP, for which the “shrunken log2 fold change” value was -0.187.

Take RRIRYRPPRLPRPRPRPNWFPRP: the “shrunken log2 fold change” value was -0.892.

For RRIRKRPPRLPRPRPRPWDRPRP, the “shrunken log2 fold change” value is 0.394.

Consider RRIRKRPPRLPRPRPRPGQPPRP, for which the “shrunken log2 fold change” value came to 0.0678.

Consider RRIRQRPPRLPRPRPRPMTLPRP, for which the “shrunken log2 fold change” value stood at 0.106.

As to RRIRVRPPRLPRPRPRPMNDPRP, the “shrunken log2 fold change” value is -0.187.

For RRIRQRPPRLPRPRPRPDPHPRP, the “shrunken log2 fold change” value was -0.0406.

For RRIRTRPPRLPRPRPRPFYLPRP, the “shrunken log2 fold change” value is -0.522.

For the sequence RRIRCRPPRLPRPRPRPGYYPRP, the “shrunken log2 fold change” value was -0.281.

Take RRIRGRPPRLPRPRPRPTLEPRP: the “shrunken log2 fold change” value turned out to be 1.22.

Turning to RRIRRRPPRLPRPRPRPEGPPRP, the “shrunken log2 fold change” value came out at 0.568.

For the sequence RRIRQRPPRLPRPRPRPPHEPRP, the “shrunken log2 fold change” value turned out to be 0.559.

Turning to RRIRFRPPRLPRPRPRPGVGPRP, the “shrunken log2 fold change” value is 0.358.

Consider RRIRSRPPRLPRPRPRPPQGPRP, for which the “shrunken log2 fold change” value amounted to 0.39.

With RRIRNRPPRLPRPRPRPQFWPRP, the “shrunken log2 fold change” value is 0.0339.

Consider RRIRSRPPRLPRPRPRPPGWPRP, for which the “shrunken log2 fold change” value came to 0.193.

Regarding RRIRDRPPRLPRPRPRPCGCPRP, the “shrunken log2 fold change” value was determined as 0.317.

Take RRIRLRPPRLPRPRPRPANNPRP: the “shrunken log2 fold change” value is -0.116.

Take RRIRTRPPRLPRPRPRPKDKPRP: the “shrunken log2 fold change” value is -0.341.

With RRIRSRPPRLPRPRPRPHPCPRP, the “shrunken log2 fold change” value turned out to be 0.0687.

Turning to RRIRYRPPRLPRPRPRPTLPPRP, the “shrunken log2 fold change” value was -0.135.

As to RRIRGRPPRLPRPRPRPKSPPRP, the “shrunken log2 fold change” value came out at 0.677.

Take RRIRGRPPRLPRPRPRPWMIPRP: the “shrunken log2 fold change” value was 0.268.

Turning to RRIRDRPPRLPRPRPRPIMNPRP, the “shrunken log2 fold change” value was found to be 0.0718.

For RRIRWRPPRLPRPRPRPKPLPRP, the “shrunken log2 fold change” value was determined as 0.375.

Take RRIRSRPPRLPRPRPRPFGCPRP: the “shrunken log2 fold change” value is 0.029.

As to RRIRYRPPRLPRPRPRPQCIPRP, the “shrunken log2 fold change” value is -0.0693.

Regarding RRIRSRPPRLPRPRPRPWQHPRP, the “shrunken log2 fold change” value is 0.14.

RRIRNRPPRLPRPRPRPDRLPRP: the “shrunken log2 fold change” value is -0.038.

On to RRIRPRPPRLPRPRPRPRVYPRP, for which the “shrunken log2 fold change” value is -0.311.

Regarding RRIRERPPRLPRPRPRPRWVPRP, the “shrunken log2 fold change” value is -0.0454.

Turning to RRIRARPPRLPRPRPRPCCWPRP, the “shrunken log2 fold change” value was 0.245.

On to RRIRMRPPRLPRPRPRPLVGPRP, for which the “shrunken log2 fold change” value came out at 0.73.

With RRIRPRPPRLPRPRPRPMTLPRP, the “shrunken log2 fold change” value is -0.189.

As for RRIRIRPPRLPRPRPRPSVRPRP, the “shrunken log2 fold change” value is -0.238.

Turning to RRIRERPPRLPRPRPRPFRTPRP, the “shrunken log2 fold change” value was -0.11.

RRIRCRPPRLPRPRPRPEEQPRP: the “shrunken log2 fold change” value is -0.0372.

Turning to RRIRARPPRLPRPRPRPHYEPRP, the “shrunken log2 fold change” value was -0.234.

In the case of RRIRKRPPRLPRPRPRPKCEPRP, the “shrunken log2 fold change” value was found to be 0.848.

As for RRIRKRPPRLPRPRPRPKFQPRP, the “shrunken log2 fold change” value came out at 0.343.

Take RRIRNRPPRLPRPRPRPFEQPRP: the “shrunken log2 fold change” value was -0.0506.

As to RRIRNRPPRLPRPRPRPPTYPRP, the “shrunken log2 fold change” value is -0.217.
